Columns and labels:
[1] = molecular target: heterodimeric Fcab JanusCT6 (one VEGF-binding CT6 chain, one Fc-wt chain) (human); test: ITC; 200 µM VEGF titrated into 40 µM Janus448 or JanusCT6 in the cell; PBS (pH 7.4), 25°C; one-set-of-sites model
[2] = molecular target: heterodimeric Fcab Janus448 (one VEGF-binding 448 chain, one Fc-wt chain) (human); test: as above

Work on “vascular endothelial growth factor (VEGF-A), truncated version, residues 14-108 (domain or fragment)” yielded a Kd [1] of 4 nM, a dH [1] of -34 kcal/mol and a stoichiometry N [1] of 0.5. The Kd [2] was 26 nM, the dH [2] was -25 kcal/mol and the stoichiometry N [2] was 0.5.

From PMC5627596
